# Laboratory results as given in the supplement of paper PMC12764529.
# ± gives the half width of the 95% confidence interval.
# Columns and labels:
# [1] = folding stability dG unfold from trypsin proteolysis; higher = more stable
# In short: (§1)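 Digests were run with trypsin and chymotrypsin at 11 concentrations in threefold dilutions, plus a no-protease condition, on designed mini-proteins in a PA-tagged cDNA display construct. The mini-proteins were under 80 residues, had no cysteine, and were kept only when AlphaFold2 dimer inter-PAE was above 15. After sequencing, Bayesian fitting of the counts gave K50, from which unfolding free energy was derived against a sequence-predicted unfolded-state K50 and a shared folded-state K50, per protease or combined.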
# [2] = folding stability dG unfold from chymotrypsin proteolysis; higher = more stable
# In short: as §1
# [3] = folding stability dG unfold (combined trypsin and chymotrypsin); higher = more stable
# In short: as §1
Sequence,folding stability dG unfold [1] [kcal/mol],folding stability dG unfold [2] [kcal/mol],folding stability dG unfold [3] [kcal/mol]
SAGGSAPVKLVVVYDEKTGEYRILAETPEGPVVFPFPRELFENIPLEDIAKLLNLEITEAVIVPNPSAGGSA [r15_801_TrMRF],2.63 ± 0.086,3.67 ± 0.13,3.38 ± 0.13
SAGGSAGGSAGQTLLVEVNGQLAEITIDPDVPGQITITLPNGEQITLEVRLEPPPPPEEESAGGSAGGSAGG [r17_85_TrROS_Hall],2.08 ± 0.3,1.39 ± 0.17,1.6 ± 0.16
SAGGLTVVSVDPSTNTITIKLGNKDIEITVPPDRPPEVTFTRDPSGTYTITITTEGSTTTYTIPLSQLPSAG [r5_500_JUSTAS],2.45 ± 0.052,3.143 ± 0.015,2.85 ± 0.07
SAGSTAELVGHPDGVELRTELRGEELVFVLPAPKDVLVVAYDPATGALVLGVPVGDRVLVLVRPPPHPSAGG [r19_384_TrMRF],2.54 ± 0.079,3.88 ± 0.099,3.53 ± 0.23
SAGGSAGGSASNPKIISVENLGNYTVVLAEDPEDGSLVLVVINPDNNSALVFKDNKPVAVFSAGGSAGGSAG [r3_297_TrMRF],1.33 ± 0.025,1.66 ± 0.11,1.45 ± 0.13
SAGGSAGGNIDPDDITEVEEETYNFPNGWHIKIDYFRVPDDGQPIMKMEIEPMPPVKPDPNDKKSAGGSAGG [r6_758_TrROS],-0.1 ± 0.11,1.23 ± 0.14,0.627 ± 0.25
SAGGSAGGSAGGSVVPTTSYSPDGTLTLTTETVTPSSNGLTVTSSTTVRPLPTPASPAASAGGSAGGSAGGS [r10_1200_JUSTAS],1.35 ± 0.18,1.01 ± 0.039,1.04 ± 0.11
SAGELEVTVTVRTETRTETREEEERRRREAAPPVRLRVFFPDTGLAVELEFDANGNIVSVKVTELPEDLSAG [r5_342_TrROS_Hall],1.87 ± 0.11,2.67 ± 0.051,2.39 ± 0.1
SAGGSAGGSAGGPNGKPLNLKIEIPKIEKIQRVNGRPVIRIPVRMTFPGKEVKMTIWIPISAGGSAGGSAGG [r7_739_TrROS],2.13 ± 0.086,2.44 ± 0.048,2.3 ± 0.095
SAGGSLEEVARALARELGLPDVEVRDIPVEVLPNGTVRIPVTIVRPEAGEPLPPLEVELAPDEPLLSAGGSA [r2_137_JUSTAS],-0.0103 ± 0.14,-0.236 ± 0.15,-0.198 ± 0.14
SAGGPDLVPVARAVYRIDVPPDRTAEEVRREIEERLRPLGVRRVVVPVFYDPERGYLLVVAEVYRSPEESAG [r5_924_TrMRF],1.82 ± 0.036,2.17 ± 0.1,2.06 ± 0.081
SAGGSAGGSAGGFIARIEYPDGNTRTINPGMSLDELRNLPPDQIRRVEVEPVPPVPDDEKSAGGSAGGSAGG [r7_190_TrROS],-0.225 ± 0.12,0.723 ± 0.023,0.499 ± 0.079
SAGGSAGGMEVVERVVKLPDGTELRITIERDPEKDTAKVTITDPTTSETRTLDVTSEEEALELLSAGGSAGG [r6_465_JUSTAS],2.31 ± 0.068,1.56 ± 0.032,1.93 ± 0.037
SAGGPPSVWIPIEINFPDSPEQLLEEVENAAQEIADLFGIPVKIEVERNPKKGYATIWIRVDGKTIPISAGG [r13_845_TrROS],1.66 ± 0.041,1.7 ± 0.11,1.71 ± 0.22
SAGGSAGGDYMMIKITNGSIKLMDGDDGKPIANLPPNQEITIMIPIKPPPPPEERKYDPNGKPKSAGGSAGG [r6_40_TrROS],0.515 ± 0.2,1.24 ± 0.2,0.799 ± 0.32
SAGGSRRLEFMFYNPEAGFLIKIEVTYDPDDPGYYKIRVEVYPPDGEPIFPVEIYVPPGDDIKIKFPSAGGS [r16_654_TrROS],3.54 ± 0.35,4.42 ± 0.13,4.31 ± 0.29
SAGGSAPETLTIKVKNADGSTQTITLPAGATATSIEFNEDTGELTIHLEETGETITLPADEITEITSAGGSA [r15_133_TrROS_Hall],1.39 ± 0.12,1.33 ± 0.026,1.4 ± 0.11
SAGPKTITIWFRSPEWIRKLAKELGFEIKKVKRTGDYWSVEFTREGGKNIEIHIPDDALKELGFDLDDISAG [r5_12_TrROS],2.3 ± 0.044,2.28 ± 0.089,2.25 ± 0.057
SAGGSAGGMSIKVEVPGPYTVKIYRPDGKPIGEIEGEPGSVIEIDLNVPPGEAKNLIIEVYPTDSAGGSAGG [r6_471_TrMRF],1.61 ± 0.074,2.58 ± 0.067,2.2 ± 0.24
SAGGSIRELAKELAREFAEEHGIKEVEVKVEPYPNGWIKIEVSVEGPNGEPIGEWPIQIPIPPDQISAGGSA [r2_153_TrROS],0.199 ± 0.071,0.74 ± 0.018,0.561 ± 0.11
SAGMLPPEETVTLTLTFPASSPLSLEEILARTPDVEVLSLKREALPDDTVRLTITVRPDHVARVRAALASAG [r5_554_JUSTAS],3.37 ± 0.054,4.63 ± 0.06,4.32 ± 0.09
